Experimental data taken from US20230201308A1, “TREATMENT OF CORONAVIRUS INFECTION WITH […]” (Eiger Biopharmaceuticals, Inc., priority 2020, published 2023).
Where two headings read alike, the source gives them in different places.

Test system: SARS-CoV-2

B1: pegylated interferon lambda-1a (protein)
chain: MKPTTTGKGCHIGRFKSLSPQELASFKKARDALEESLKLKNWSCSSPVFPGNWDLRLLQVRERPVALEAELALTLKVLEAAAGPALEDVLDQPLHTLHHILSQLQACIQPQPTAGPRPRGRLHHWLHRLQEAPKKESAGCLEASVTFNLFRLLTRDLKYVADGNLSLRTSTHPEST
modifications: PEG
notes: 180 mcg subcutaneous injection
- risk reduction by dominant variant (August 2021 to December 2021, Delta predominant): 46%
- risk reduction by dominant variant (December 2021 to February 2022, Omicron dominant): 83%
- # events (variant analysis) (Full Study, June 2021-February 2022, N 916): 916 (25)
- risk reduction by dominant variant (June 2021 to August 2021, Gamma predominant): 25%
- HR, all-cause mortality or hospitalization due to COVID-19, Time-to-Event analysis (human, in vivo): 0.00
- RR, all-cause mortality or hospitalization due to COVID-19 (human, in vivo): 0.14
- estimated effect across variants (human, in vivo): beneficial across all variants
- efficacy across SARS-CoV-2 variants (viral sequencing on all patients): pan-variant efficacy in all variants tested, including omicron
